The results in this text go back to patent US20120046217A1 (SUNGKYUNKWAN UNIVERSITY FOUNDATION FOR CORPORATE …, published 2012).

In the experiment the target is T1, Flag-TNFR1 (UniProt P19438 30-455, limits assumed).
T1 construct: whole, on cells; The receptor sat on the membrane of transfected HEK293 cells; not shown: Flag tag
T1 sequence (looked up): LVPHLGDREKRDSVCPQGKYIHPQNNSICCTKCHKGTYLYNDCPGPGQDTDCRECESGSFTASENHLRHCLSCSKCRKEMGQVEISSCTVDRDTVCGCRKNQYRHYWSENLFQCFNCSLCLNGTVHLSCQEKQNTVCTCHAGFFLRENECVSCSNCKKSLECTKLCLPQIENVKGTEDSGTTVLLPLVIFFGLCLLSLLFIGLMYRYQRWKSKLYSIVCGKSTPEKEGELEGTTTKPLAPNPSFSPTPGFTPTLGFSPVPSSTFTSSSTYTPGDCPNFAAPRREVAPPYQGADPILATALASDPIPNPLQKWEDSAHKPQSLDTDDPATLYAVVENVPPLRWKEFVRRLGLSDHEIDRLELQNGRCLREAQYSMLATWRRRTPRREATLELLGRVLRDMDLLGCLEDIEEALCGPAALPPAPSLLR
Nature of the experiment: co-immunoprecipitation of truncated mutants co-transfected with TNFR1. As for the experimental part:
The cells were washed with RIPA buffer, and protein-A/G-agarose beads (Santa Cruz) were added in an amount of 20 μL/tube to perform immunoprecipitation. According to the molecular weights of the truncated mutants, […] 15% SDS-PAGE gel electrophoresis was carried out, followed by Western blotting with an Myc antibody (FIG. 9).

B1: truncated mutant consisting of an IGFBP5 C-terminal domain (other)
chain: QGPCRRHMEASLQELKASPRMVPRAVYLPNCDRKGFYKRKQCKPSRGRKRGICWCVDKYGMKLPGMEYVDGDFQCHTFDSSNVE
notes: not shown: Myc tag from vector pSecTaq2/Hygro A
On to B1, for which the binding result was “no binding”.

B2: truncated mutant consisting of an IGFBP5 N-terminal domain (other)
chain: LGSFVHCEPCDEKALSMCPPSPLGCELVKEPGCGCCMTCALAEGQSCGVYTERCAQGLRCLPRQDEEKPLHALLHGRGVC
notes: as for B1
On to B2, for which the binding result was “no binding”.
